Results from PMC9482650, “Quantitative fragmentomics allow affinity mapping of interactomes” (Nature Communications, 2022).

Columns and labels:
Test in all cases: holdup assay
Design in all cases: key: below the threshold = too weak to quantify, mostly under pKd 3.1 to 4
[1] = target: AHNAK1, Q09666
[2] = target: T1, APBA1_1, Q02410
T1 sequence (Q02410 651-752, limits assumed, looked up): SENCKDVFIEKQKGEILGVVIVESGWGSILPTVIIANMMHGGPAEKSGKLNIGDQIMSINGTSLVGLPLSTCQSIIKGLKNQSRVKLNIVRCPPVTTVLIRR

[3] = target: T2, APBA1_2, Q02410
T2 sequence (Q02410 742-832, limits assumed, looked up): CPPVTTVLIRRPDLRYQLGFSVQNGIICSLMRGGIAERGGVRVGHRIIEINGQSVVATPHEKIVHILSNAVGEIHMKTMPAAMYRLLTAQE

[4] = target: T3, DFNB31_2, Q9P202
T3 sequence (Q9P202 274-371, limits assumed, looked up): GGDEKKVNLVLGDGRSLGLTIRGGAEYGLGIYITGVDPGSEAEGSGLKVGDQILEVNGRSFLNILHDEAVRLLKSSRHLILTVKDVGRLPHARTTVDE

[5] = target: DLG1_2, Q12959
DLG1_2, Q12959, sequence (Q12959 314-412): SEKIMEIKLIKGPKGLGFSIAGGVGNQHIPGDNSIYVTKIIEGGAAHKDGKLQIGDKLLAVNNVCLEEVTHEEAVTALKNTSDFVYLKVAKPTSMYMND

[6] = target: DLG1_3, Q12959
DLG1_3, Q12959, sequence (Q12959 457-571): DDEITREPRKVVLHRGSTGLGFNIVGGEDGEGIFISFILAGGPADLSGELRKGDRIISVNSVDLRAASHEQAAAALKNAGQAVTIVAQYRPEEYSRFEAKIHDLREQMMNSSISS

[7] = target: T4, DLG3_3, Q92796
T4 sequence (Q92796 374-475, limits assumed, looked up): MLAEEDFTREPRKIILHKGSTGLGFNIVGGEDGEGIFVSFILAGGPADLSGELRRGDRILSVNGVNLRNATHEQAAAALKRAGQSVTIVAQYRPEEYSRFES

[8] = target: T5, DVL3, Q92997
T5 sequence (Q92997 244-331, limits assumed, looked up): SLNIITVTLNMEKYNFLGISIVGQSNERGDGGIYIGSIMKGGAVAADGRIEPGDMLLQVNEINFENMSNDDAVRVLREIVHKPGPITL

[9] = target: T6, FRMPD1, Q5SYB0
T6 sequence (Q5SYB0 52-145, limits assumed, looked up): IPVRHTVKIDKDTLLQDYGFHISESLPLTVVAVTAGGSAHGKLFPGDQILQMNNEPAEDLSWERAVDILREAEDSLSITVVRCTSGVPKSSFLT

[10] = target: FRMPD3, Q5JV73
FRMPD3, Q5JV73, sequence (Q5JV73 12-100): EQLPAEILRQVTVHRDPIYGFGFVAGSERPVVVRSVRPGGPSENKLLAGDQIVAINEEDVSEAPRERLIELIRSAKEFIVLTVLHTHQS

[11] = target: GOPC, Q9HD26
[12] = target: T7, GRIP1_5, Q9Y3R0
T7 sequence (Q9Y3R0 568-668, limits assumed, looked up): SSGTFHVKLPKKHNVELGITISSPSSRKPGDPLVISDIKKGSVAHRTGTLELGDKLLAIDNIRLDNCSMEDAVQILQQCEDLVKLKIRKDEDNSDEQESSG

[13] = target: GRIP2_3, Q9C0E4
GRIP2_3, Q9C0E4, sequence (Q9C0E4 238-339): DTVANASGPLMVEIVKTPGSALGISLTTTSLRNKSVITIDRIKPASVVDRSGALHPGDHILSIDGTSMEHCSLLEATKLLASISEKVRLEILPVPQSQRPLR

[14] = target: T8, HTRA3, P83110
T8 sequence (P83110 354-453, limits assumed, looked up): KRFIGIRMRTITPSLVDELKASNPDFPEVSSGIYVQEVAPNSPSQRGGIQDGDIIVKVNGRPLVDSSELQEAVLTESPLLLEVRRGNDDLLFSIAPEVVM

[15] = target: Inadl_10, Q8NI35
Inadl_10, Q8NI35, sequence (Q8NI35 1673-1763): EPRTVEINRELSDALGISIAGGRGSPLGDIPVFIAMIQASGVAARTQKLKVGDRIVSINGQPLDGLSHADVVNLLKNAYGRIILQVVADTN

[16] = target: Inadl_4, Q8NI35
Inadl_4, Q8NI35, sequence (Q8NI35 547-651): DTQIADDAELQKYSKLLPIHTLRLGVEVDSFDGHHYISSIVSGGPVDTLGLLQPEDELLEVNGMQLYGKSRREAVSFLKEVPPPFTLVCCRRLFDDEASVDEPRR

[17] = target: Inadl_5, Q8NI35
Inadl_5, Q8NI35, sequence (Q8NI35 673-780): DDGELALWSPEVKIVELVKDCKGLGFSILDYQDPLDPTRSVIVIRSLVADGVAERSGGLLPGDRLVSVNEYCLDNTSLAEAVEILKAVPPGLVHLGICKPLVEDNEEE

[18] = target: Inadl_8, Q8NI35
Inadl_8, Q8NI35, sequence (Q8NI35 1425-1530): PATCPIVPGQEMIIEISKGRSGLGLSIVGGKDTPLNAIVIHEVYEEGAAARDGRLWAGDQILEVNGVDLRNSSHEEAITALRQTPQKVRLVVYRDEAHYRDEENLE

[19] = target: Inadl_9, Q8NI35
Inadl_9, Q8NI35, sequence (Q8NI35 1530-1615): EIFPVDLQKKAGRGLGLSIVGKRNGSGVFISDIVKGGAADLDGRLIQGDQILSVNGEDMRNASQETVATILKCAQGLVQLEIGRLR

[20] = target: T9, LNX2_2, Q8N448
T9 sequence (Q8N448 334-432, limits assumed, looked up): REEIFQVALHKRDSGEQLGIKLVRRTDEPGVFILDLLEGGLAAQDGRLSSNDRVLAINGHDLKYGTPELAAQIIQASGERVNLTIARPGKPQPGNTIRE

[21] = target: NHERF4_1, Q86UT5-2
NHERF4_1, Q86UT5-2, sequence (Q86UT5 other isoform, or with tags, fused parts or gaps): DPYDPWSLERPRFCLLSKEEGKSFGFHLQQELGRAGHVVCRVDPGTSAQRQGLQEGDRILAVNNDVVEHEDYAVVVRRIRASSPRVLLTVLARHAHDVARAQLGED

[22] = target: NOS1, P29475
NOS1, P29475, sequence (P29475 9-101): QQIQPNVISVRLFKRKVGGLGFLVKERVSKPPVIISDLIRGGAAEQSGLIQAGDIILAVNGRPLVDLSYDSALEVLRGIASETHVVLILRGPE

[23] = target: PDLIM1, O00151
PDLIM1, O00151, sequence (O00151 1-87): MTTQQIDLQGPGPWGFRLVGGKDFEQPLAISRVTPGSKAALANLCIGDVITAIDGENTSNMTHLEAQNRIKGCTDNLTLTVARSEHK

[24] = target: PDZRN4_1, Q6ZMN7
PDZRN4_1, Q6ZMN7, sequence (Q6ZMN7 213-318): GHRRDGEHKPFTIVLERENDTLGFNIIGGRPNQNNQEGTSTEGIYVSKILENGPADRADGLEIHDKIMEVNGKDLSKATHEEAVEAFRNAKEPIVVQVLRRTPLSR

[25] = target: PTPN3, P26045
PTPN3, P26045, sequence (P26045 505-587): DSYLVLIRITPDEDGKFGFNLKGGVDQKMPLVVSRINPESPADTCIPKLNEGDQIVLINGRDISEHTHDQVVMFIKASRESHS

[26] = target: SCRIB_1, Q14160
SCRIB_1, Q14160, sequence (Q14160 718-814): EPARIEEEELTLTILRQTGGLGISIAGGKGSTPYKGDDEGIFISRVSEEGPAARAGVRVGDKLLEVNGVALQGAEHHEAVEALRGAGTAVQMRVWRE

[27] = target: SCRIB_3, Q14160
SCRIB_3, Q14160, sequence (Q14160 999-1103): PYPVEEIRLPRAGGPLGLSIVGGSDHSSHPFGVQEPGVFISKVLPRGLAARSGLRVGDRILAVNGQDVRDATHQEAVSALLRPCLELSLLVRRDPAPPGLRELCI

[28] = target: TJP1_3, Q07157
TJP1_3, Q07157, sequence (Q07157 416-512): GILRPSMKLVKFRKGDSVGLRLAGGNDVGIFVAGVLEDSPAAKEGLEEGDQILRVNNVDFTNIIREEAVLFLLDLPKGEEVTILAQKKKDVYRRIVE

[29] = target: TJP2_1, Q9UDY2
TJP2_1, Q9UDY2, sequence (Q9UDY2 24-128): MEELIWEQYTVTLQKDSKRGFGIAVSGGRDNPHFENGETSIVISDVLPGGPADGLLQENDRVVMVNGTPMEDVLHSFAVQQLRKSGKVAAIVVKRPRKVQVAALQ

[30] = plain residues with an end cap or a label only (N-terminal biotin on a linker: ado-ado)
[31] = plain residues with an end cap or a label only (N-terminal biotin on a linker: ahx)

AHNAK1, Q09666, sequence (Q09666 4-100): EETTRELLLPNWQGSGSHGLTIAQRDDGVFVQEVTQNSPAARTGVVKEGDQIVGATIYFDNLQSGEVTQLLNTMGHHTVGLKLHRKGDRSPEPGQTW

With RSSGGDDFWF [KCNV1, Q6PIU1] the pKd [1, 30] was “below the threshold”, the pKd [2, 30] was “below the threshold” and the pKd [3, 30] was “below the threshold”. The pKd [4, 30] was “below the threshold”, the pKd [5, 30] was 3.67 and the pKd [6, 30] was 3.57. The pKd [7, 30] was “below the threshold”, the pKd [8, 30] was 3.64 and the pKd [9, 30] was “below the threshold”. The pKd [10, 30] was 4.82, the pKd [11, 30] was “below the threshold” and the pKd [12, 30] was “below the threshold”. The pKd [13, 30] was “below the threshold”, the pKd [14, 30] was 4.37 and the pKd [15, 30] was “below the threshold”. For the same binder, the pKd [16, 30] was “below the threshold”, the pKd [17, 30] was “below the threshold” and the pKd [18, 30] was “below the threshold”. The pKd [19, 30] was “below the threshold”, the pKd [20, 30] was 3.8 and the pKd [21, 30] was “below the threshold”. The pKd [22, 30] was “below the threshold”, the pKd [23, 30] was “below the threshold” and the pKd [24, 30] was “below the threshold”. For the same binder, the pKd [25, 30] was 4.35, the pKd [26, 30] was “below the threshold” and the pKd [27, 30] was 4.29. For the same binder, the pKd [28, 30] was “below the threshold” and the pKd [29, 30] was “below the threshold”.

In the case of TESNLQTSSC [CGN, Q9P2M7], the pKd [1, 31] is reported as “below the threshold”, the pKd [2, 31] is reported as “below the threshold” and the pKd [3, 31] is reported as “below the threshold”. The pKd [4, 31] was “below the threshold”, the pKd [5, 31] was “below the threshold” and the pKd [6, 31] was “below the threshold”. For the same binder, the pKd [7, 31] was “below the threshold”, the pKd [8, 31] was “below the threshold” and the pKd [9, 31] was “below the threshold”. For the same binder, the pKd [10, 31] was “below the threshold”, the pKd [11, 31] was “below the threshold” and the pKd [12, 31] was “below the threshold”. The pKd [13, 31] was “below the threshold”, the pKd [14, 31] was “below the threshold” and the pKd [15, 31] was 3.6. The pKd [16, 31] was “below the threshold”, the pKd [17, 31] was “below the threshold” and the pKd [18, 31] was 4.18. The pKd [19, 31] was “below the threshold”, the pKd [20, 31] was “below the threshold” and the pKd [21, 31] was 3.62. For the same binder, the pKd [22, 31] was “below the threshold”, the pKd [23, 31] was “below the threshold” and the pKd [24, 31] was “below the threshold”. The pKd [25, 31] was “below the threshold”, the pKd [26, 31] was “below the threshold” and the pKd [27, 31] was “below the threshold”. For the same binder, the pKd [28, 31] was “below the threshold” and the pKd [29, 31] was “below the threshold”.
